The source of these data is patent US20220389120A1 (GENSUN BIOPHARMA, published 2022).

This assay addresses T1, recombinant human Ang2 (Biolegend) (human, UniProt O15123 19-496, limits assumed).
T1 construct: Bought reagent; also called angiopoietin-2
T1 sequence (looked up): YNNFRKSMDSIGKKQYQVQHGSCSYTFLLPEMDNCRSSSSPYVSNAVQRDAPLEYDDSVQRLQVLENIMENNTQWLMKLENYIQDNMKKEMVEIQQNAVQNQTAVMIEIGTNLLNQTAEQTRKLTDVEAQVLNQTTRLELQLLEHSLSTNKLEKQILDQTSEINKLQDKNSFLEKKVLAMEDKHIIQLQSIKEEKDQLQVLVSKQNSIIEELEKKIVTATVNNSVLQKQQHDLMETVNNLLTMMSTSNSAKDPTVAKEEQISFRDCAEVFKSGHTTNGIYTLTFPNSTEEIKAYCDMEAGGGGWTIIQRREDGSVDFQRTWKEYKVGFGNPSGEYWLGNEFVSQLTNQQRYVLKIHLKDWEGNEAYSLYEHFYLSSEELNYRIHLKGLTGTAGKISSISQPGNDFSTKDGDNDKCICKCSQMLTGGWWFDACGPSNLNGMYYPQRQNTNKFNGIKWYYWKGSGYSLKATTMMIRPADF
The assay can be described thus: Tie2-Ang2 blocking ELISA.

Procedure: 96-well assay plates were coated with 0.5 ug/ml of recombinant human Ang2 (Biolegend) in PBS at 4° C. overnight, then blocked with 1% BSA/PBS for 1 hour at room temperature. […] After washing with Wash Buffer, Streptavidin-HRP was added to the plate at 1:200 and incubated for 30 minutes at room temperature.

B1: GS01-A (other)
heavy: QVQLVQSGAEVKKPGASVKVSCKASGYTFTSYYIHWVRQAPGQGLEWMGWIFPGSGNSKYNENFKGRVTLTADTSTSTVYMELSSLRSEDTAVYYCASETYDYGDYWGQGTLVTVSSASTKGPSVFPLAPCSRSTSESTAALGCLVKDYFPEPVTVSWNSGALTSGVHTFPAVLQSSGLYSLSSVVTVPSSSLGTKTYTCNVDHKPSNTKVDKRVESKYGPPCPPCPAPEFLGGPSVFLFPPKPKDTLMISRTPEVTCVVVDVSQEDPEVQFNWYVDGVEVHNAKTKPREEQFNSTYRVVSVLTVLHQDWLNGKEYKCKVSNKGLPSSIEKTISKAKGQPREPQVYTLPPSQEEMGGAQTNFMPMDDLEQRLYEQFILQQGGGGSGGGGSGGGGSGGGGSTNFMPMDDLEQRLYEQFILQQGLETKNQVSLTCLVKGFYPSDIAVEWESNGQPENNYKTTPPVLDSDGSFFLYSRLTVDKSRWQEGNVFSCSVMHEALHNHYTQKSLSLSLGKGGGGSGGGGSGGGGSGGGGSEVQLVESGGGLVQPGGSLRLSCAASGFTISDYWIHWVRQAPGKGLEWVAGITPAGGYTYYADSVKGRFTISADTSKNTAYLQMNSLRAEDTAVYYCARFVFFLPYAMDYWGQGTLVTVSSGGGGSGGGGSGGGGSGGGGSDIQMTQSPSSLSASVGDRVTITCRASQDVSTAVAWYQQKPGKAPKLLIYSASFLYSGVPSRFSGSGSGTDFTLTISSLQPEDFATYYCQQGYGNPFTFGQGTKVEIK
light: DIQMTQSPSFLSASVGDRVTITCKASQNVGTNVAWYQQKPGKAPKALIYSASYRYSGVPSRFSGSGSGTEFTLTISSLQPEDFATYYCQQYYSYPYTFGQGTKLEIKRTVAAPSVFIFPPSDEQLKSGTASVVCLLNNFYPREAKVQWKVDNALQSGNSQESVTEQDSKDSTYSLSSTLTLSKADYEKHKVYACEVTHQGLSSPVTKSFNRGEC
notes: Trispecific PD-1/VEGF/Ang2 antagonist on an IgG4 Fc; also called trispecific construct GS01-A
With B1, the binding result is “binds”.

B2: GS01-T (other)
heavy: QVQLVQSGAEVKKPGASVKVSCKASGYTFTSYYIHWVRQAPGQGLEWMGWIFPGSGNSKYNENFKGRVTLTADTSTSTVYMELSSLRSEDTAVYYCASETYDYGDYWGQGTLVTVSSASTKGPSVFPLAPCSRSTSESTAALGCLVKDYFPEPVTVSWNSGALTSGVHTFPAVLQSSGLYSLSSVVTVPSSSLGTKTYTCNVDHKPSNTKVDKRVESKYGPPCPPCPAPEFLGGPSVFLFPPKPKDTLMISRTPEVTCVVVDVSQEDPEVQFNWYVDGVEVHNAKTKPREEQFNSTYRVVSVLTVLHQDWLNGKEYKCKVSNKGLPSSIEKTISKAKGQPREPQVYTLPPSQEEMGGAQQEECEWDPWTCEHMGSGSATGGSGSTASSGSGSATHQEECEWDPWTCEHMGGTKNQVSLTCLVKGFYPSDIAVEWESNGQPENNYKTTPPVLDSDGSFFLYSRLTVDKSRWQEGNVFSCSVMHEALHNHYTQKSLSLSLGKGGGGSGGGGSGGGGSGGGGSEVQLVESGGGLVQPGGSLRLSCAASGFTISDYWIHWVRQAPGKGLEWVAGITPAGGYTYYADSVKGRFTISADTSKNTAYLQMNSLRAEDTAVYYCARFVFFLPYAMDYWGQGTLVTVSSGGGGSGGGGSGGGGSGGGGSDIQMTQSPSSLSASVGDRVTITCRASQDVSTAVAWYQQKPGKAPKLLIYSASFLYSGVPSRFSGSGSGTDFTLTISSLQPEDFATYYCQQGYGNPFTFGQGTKVEIK
light: DIQMTQSPSFLSASVGDRVTITCKASQNVGTNVAWYQQKPGKAPKALIYSASYRYSGVPSRFSGSGSGTEFTLTISSLQPEDFATYYCQQYYSYPYTFGQGTKLEIKRTVAAPSVFIFPPSDEQLKSGTASVVCLLNNFYPREAKVQWKVDNALQSGNSQESVTEQDSKDSTYSLSSTLTLSKADYEKHKVYACEVTHQGLSSPVTKSFNRGEC
notes: Trispecific PD-1/VEGF/Ang1/Ang2 antagonist on an IgG4 Fc; also called trispecific construct GS01-T
On to B2, for which the binding result was “binds”.

B3: Bi-T0Z (Fc fusion)
chain: ESKYGPPCPPCPAPEFLGGPSVFLFPPKPKDTLMISRTPEVTCVVVDVSQEDPEVQFNWYVDGVEVHNAKTKPREEQFNSTYRVVSVLTVLHQDWLNGKEYKCKVSNKGLPSSIEKTISKAKGQPREPQVYTLPPSQEEMGGAQQEECEWDPWTCEHMGSGSATGGSGSTASSGSGSATHQEECEWDPWTCEHMGGTKNQVSLTCLVKGFYPSDIAVEWESNGQPENNYKTTPPVLDSDGSFFLYSRLTVDKSRWQEGNVFSCSVMHEALHNHYTQKSLSLSLGKGGGGSGGGGSGGGGSSDTGRPFVEMYSEIPEIIHMTEGRELVIPCRVTSPNITVTLKKFPLDTLIPDGKRIIWDSRKGFIISNATYKEIGLLTCEATVNGHLYKTNYLTHRQTNTIIDVVLSPSHGIELSVGEKLVLNCTARTELNVGIDFNWEYPSSKHQHKKLVNRDLKTQSGSEMKKFLSTLTIDGVTRSDQGLYTCAASSGLMTKKNSTFVRVHEK
Turning to B3, the binding result is “binds”.
